To fix the notation:
B1: MTSP-1 Q38H/I41S/D60bG/ins97aV/F97D/T98P/F99L/M117T/C122S/N164D/Q192G/D217E (enzyme)
chain: VVGGTDADEGEWPWQVSLHALGHGHSCGASLISPNWLVSAAHCYIDGRGFRYSDPTQWTAFLGLHDQSQRSAPGVQERRLKRIISHPFFNDDVPLDYDIALLELEKPAEYSSTVRPISLPDASHVFPAGKAIWVTGWGHTQYGGTGALILQKGEIRVIDQTTCENLLPQQITPRMMCVGFLSGGVDSCGGDSGGPLSSVEADGRIFQAGVVSWGEGCAQRNKPGVYTRLPLFRDWIKENTGV
B2: MTSP-1 Q38H/I41S/L52M/D60bH/D96V/ins97aV/F97D/T98P/F99L/C122S/T150A/Q192G/Q209L/D217T (enzyme)
chain: VVGGTDADEGEWPWQVSLHALGHGHSCGASLISPNWMVSAAHCYIDHRGFRYSDPTQWTAFLGLHDQSQRSAPGVQERRLKRIISHPFFNVDVPLDYDIALLELEKPAEYSSMVRPISLPDASHVFPAGKAIWVTGWGHTQYGGAGALILQKGEIRVINQTTCENLLPQQITPRMMCVGFLSGGVDSCGGDSGGPLSSVEADGRIFLAGVVSWGTGCAQRNKPGVYTRLPLFRDWIKENTGV
B3: MTSP-1 Q38H/I41S/D60bT/F60eT/Y60gW/ins97aV/F97D/T98P/F99L/C122S/G151H/Q175L/Q192V (enzyme)
chain: VVGGTDADEGEWPWQVSLHALGHGHSCGASLISPNWLVSAAHCYIDTRGTRWSDPTQWTAFLGLHDQSQRSAPGVQERRLKRIISHPFFNDDVPLDYDIALLELEKPAEYSSMVRPISLPDASHVFPAGKAIWVTGWGHTQYGGTHALILQKGEIRVINQTTCENLLPQLITPRMMCVGFLSGGVDSCVGDSGGPLSSVEADGRIFQAGVVSWGDGCAQRNKPGVYTRLPLFRDWIKENTGV
B4: MTSP-1 Q38H/I41S/D60bT/S90T/F97D/ins97aV/T98P/F99L/C122S/S127N/I136F/Q192G/D217Q (enzyme)
chain: VVGGTDADEGEWPWQVSLHALGHGHSCGASLISPNWLVSAAHCYIDTRGFRYSDPTQWTAFLGLHDQSQRSAPGVQERRLKRIITHPFFNDDVPLDYDIALLELEKPAEYSSMVRPISLPDANHVFPAGKAFWVTGWGHTQYGGTGALILQKGEIRVINQTTCENLLPQQITPRMMCVGFLSGGVDSCGGDSGGPLSSVEADGRIFQAGVVSWGQGCAQRNKPGVYTRLPLFRDWIKENTGV
B5: MTSP-1 I41S/D60bS/D96V/ins97aV/F97D/T98P/F99L/C122S/Q192G/F208L/D217N (enzyme)
chain: VVGGTDADEGEWPWQVSLHALGQGHSCGASLISPNWLVSAAHCYIDSRGFRYSDPTQWTAFLGLHDQSQRSAPGVQERRLKRIISHPFFNVDVPLDYDIALLELEKPAEYSSMVRPISLPDASHVFPAGKAIWVTGWGHTQYGGTGALILQKGEIRVINQTTCENLLPQQITPRMMCVGFLSGGVDSCGGDSGGPLSSVEADGRILQAGVVSWGNGCAQRNKPGVYTRLPLFRDWIKENTGV
B6: MTSP-1 I41S/D60bH/ins97aV/F97D/T98P/F99L/C122S/I136V/Q192G/D217N (enzyme)
chain: VVGGTDADEGEWPWQVSLHALGQGHSCGASLISPNWLVSAAHCYIDHRGFRYSDPTQWTAFLGLHDQSQRSAPGVQERRLKRIISHPFFNDDVPLDYDIALLELEKPAEYSSMVRPISLPDASHVFPAGKAVWVTGWGHTQYGGTGALILQKGEIRVINQTTCENLLPQQITPRMMCVGFLSGGVDSCGGDSGGPLSSVEADGRIFQAGVVSWGNGCAQRNKPGVYTRLPLFRDWIKENTGV
B7: MTSP-1 Q38H/I41S/D60bY/D96Y/ins97aV/F97D/T98P/F99L/L106M/C122S/I136M/Q192G/Q209L/D217T (enzyme)
chain: VVGGTDADEGEWPWQVSLHALGHGHSCGASLISPNWLVSAAHCYIDYRGFRYSDPTQWTAFLGLHDQSQRSAPGVQERRLKRIISHPFFNYDVPLDYDIALMELEKPAEYSSMVRPISLPDASHVFPAGKAMWVTGWGHTQYGGTGALILQKGEIRVINQTTCENLLPQQITPRMMCVGFLSGGVDSCGGDSGGPLSSVEADGRIFLAGVVSWGTGCAQRNKPGVYTRLPLFRDWIKENTGV
B8: MTSP-1 Q38H/I41S/D60bT/F60eS/Y60gW/ins97aV/F97D/T98P/F99L/C122S/G151N/Q175L/Q192D (enzyme)
chain: VVGGTDADEGEWPWQVSLHALGHGHSCGASLISPNWLVSAAHCYIDTRGSRWSDPTQWTAFLGLHDQSQRSAPGVQERRLKRIISHPFFNDDVPLDYDIALLELEKPAEYSSMVRPISLPDASHVFPAGKAIWVTGWGHTQYGGTNALILQKGEIRVINQTTCENLLPQLITPRMMCVGFLSGGVDSCDGDSGGPLSSVEADGRIFQAGVVSWGDGCAQRNKPGVYTRLPLFRDWIKENTGV
B9: MTSP-1 Q38K/I41S/D60bV/ins97aV/F97D/T98P/F99L/M117T/C122S/Q145E/Q175L/Q192G (enzyme)
chain: VVGGTDADEGEWPWQVSLHALGKGHSCGASLISPNWLVSAAHCYIDVRGFRYSDPTQWTAFLGLHDQSQRSAPGVQERRLKRIISHPFFNDDVPLDYDIALLELEKPAEYSSTVRPISLPDASHVFPAGKAIWVTGWGHTEYGGTGALILQKGEIRVINQTTCENLLPQLITPRMMCVGFLSGGVDSCGGDSGGPLSSVEADGRIFQAGVVSWGDGCAQRNKPGVYTRLPLFRDWIKENTGV
B10: MTSP-1 Q38H/I41S/D60bT/F93S/ins97aV/F97D/T98P/F99L/C122S/I136L/Q192G/D217A (enzyme)
chain: VVGGTDADEGEWPWQVSLHALGHGHSCGASLISPNWLVSAAHCYIDTRGFRYSDPTQWTAFLGLHDQSQRSAPGVQERRLKRIISHPSFNDDVPLDYDIALLELEKPAEYSSMVRPISLPDASHVFPAGKALWVTGWGHTQYGGTGALILQKGEIRVINQTTCENLLPQQITPRMMCVGFLSGGVDSCGGDSGGPLSSVEADGRIFQAGVVSWGAGCAQRNKPGVYTRLPLFRDWIKENTGV
B11: MTSP-1 L33M/Q38H/I41A/D60bA/ins97aV/F97D/T98P/F99L/C122S/Q192G/D217N (enzyme)
chain: VVGGTDADEGEWPWQVSMHALGHGHACGASLISPNWLVSAAHCYIDARGFRYSDPTQWTAFLGLHDQSQRSAPGVQERRLKRIISHPFFNDDVPLDYDIALLELEKPAEYSSMVRPISLPDASHVFPAGKAIWVTGWGHTQYGGTGALILQKGEIRVINQTTCENLLPQQITPRMMCVGFLSGGVDSCGGDSGGPLSSVEADGRIFQAGVVSWGNGCAQRNKPGVYTRLPLFRDWIKENTGV
B12: MTSP-1 Q38H/I41A/D60bV/F60eR/Y60gW/ins97aE/F97T/T98G/F99L/C122S/G151H/Q175L/Q192D (enzyme)
chain: VVGGTDADEGEWPWQVSLHALGHGHACGASLISPNWLVSAAHCYIDVRGRRWSDPTQWTAFLGLHDQSQRSAPGVQERRLKRIISHPFFNDTEGLDYDIALLELEKPAEYSSMVRPISLPDASHVFPAGKAIWVTGWGHTQYGGTHALILQKGEIRVINQTTCENLLPQLITPRMMCVGFLSGGVDSCDGDSGGPLSSVEADGRIFQAGVVSWGDGCAQRNKPGVYTRLPLFRDWIKENTGV
B13: MTSP-1 Q38H/I41A/D60bV/F60eR/Y60gW/D96Y/ins97aI/F97E/T98N/F99M/C122S/G151N/Q175L/Q192V (enzyme)
chain: VVGGTDADEGEWPWQVSLHALGHGHACGASLISPNWLVSAAHCYIDVRGRRWSDPTQWTAFLGLHDQSQRSAPGVQERRLKRIISHPFFNYEINMDYDIALLELEKPAEYSSMVRPISLPDASHVFPAGKAIWVTGWGHTQYGGTNALILQKGEIRVINQTTCENLLPQLITPRMMCVGFLSGGVDSCVGDSGGPLSSVEADGRIFQAGVVSWGDGCAQRNKPGVYTRLPLFRDWIKENTGV
B14: MTSP-1 Q38H/I41S/D60bT/F60eS/Y60gW/D96K/ins97aA/F97D/T98P/F99L/C122S/G151H/Q175L/Q192D (enzyme)
chain: VVGGTDADEGEWPWQVSLHALGHGHSCGASLISPNWLVSAAHCYIDTRGSRWSDPTQWTAFLGLHDQSQRSAPGVQERRLKRIISHPFFNKDAPLDYDIALLELEKPAEYSSMVRPISLPDASHVFPAGKAIWVTGWGHTQYGGTHALILQKGEIRVINQTTCENLLPQLITPRMMCVGFLSGGVDSCDGDSGGPLSSVEADGRIFQAGVVSWGDGCAQRNKPGVYTRLPLFRDWIKENTGV
B15: MTSP-1 Q38H/I41A/D60bV/F60eR/Y60gW/D96P/ins97aN/F97W/T98G/F99L/C122S/G151N/Q175L/Q192E (enzyme)
chain: VVGGTDADEGEWPWQVSLHALGHGHACGASLISPNWLVSAAHCYIDVRGRRWSDPTQWTAFLGLHDQSQRSAPGVQERRLKRIISHPFFNPWNGLDYDIALLELEKPAEYSSMVRPISLPDASHVFPAGKAIWVTGWGHTQYGGTNALILQKGEIRVINQTTCENLLPQLITPRMMCVGFLSGGVDSCEGDSGGPLSSVEADGRIFQAGVVSWGDGCAQRNKPGVYTRLPLFRDWIKENTGV
B16: MTSP-1 Q38H/I41A/D60bV/F60eR/Y60gW/D96S/ins97aR/F97A/T98S/F99L/C122S/G151N/Q175L/Q192T (enzyme)
chain: VVGGTDADEGEWPWQVSLHALGHGHACGASLISPNWLVSAAHCYIDVRGRRWSDPTQWTAFLGLHDQSQRSAPGVQERRLKRIISHPFFNSARSLDYDIALLELEKPAEYSSMVRPISLPDASHVFPAGKAIWVTGWGHTQYGGTNALILQKGEIRVINQTTCENLLPQLITPRMMCVGFLSGGVDSCTGDSGGPLSSVEADGRIFQAGVVSWGDGCAQRNKPGVYTRLPLFRDWIKENTGV
B17: MTSP-1 Q38H/I41A/D60bV/F60eR/Y60gW/D96I/ins97aN/F97Y/T98G/F99L/C122S/G151N/Q175L/Q192D (enzyme)
chain: VVGGTDADEGEWPWQVSLHALGHGHACGASLISPNWLVSAAHCYIDVRGRRWSDPTQWTAFLGLHDQSQRSAPGVQERRLKRIISHPFFNIYNGLDYDIALLELEKPAEYSSMVRPISLPDASHVFPAGKAIWVTGWGHTQYGGTNALILQKGEIRVINQTTCENLLPQLITPRMMCVGFLSGGVDSCDGDSGGPLSSVEADGRIFQAGVVSWGDGCAQRNKPGVYTRLPLFRDWIKENTGV
B18: MTSP-1 Q38H/I41S/D60bT/F60eS/Y60gW/D96Y/ins97aV/F97E/T98G/F99L/C122S/G151H/Q175L/Q192D (enzyme)
chain: VVGGTDADEGEWPWQVSLHALGHGHSCGASLISPNWLVSAAHCYIDTRGSRWSDPTQWTAFLGLHDQSQRSAPGVQERRLKRIISHPFFNYEVGLDYDIALLELEKPAEYSSMVRPISLPDASHVFPAGKAIWVTGWGHTQYGGTHALILQKGEIRVINQTTCENLLPQLITPRMMCVGFLSGGVDSCDGDSGGPLSSVEADGRIFQAGVVSWGDGCAQRNKPGVYTRLPLFRDWIKENTGV
B19: MTSP-1 Q38H/I41T/D60bV/F60eR/Y60gW/D96I/ins97aN/F97Y/T98G/F99L/C122S/G151N/Q175L/Q192D (enzyme)
chain: VVGGTDADEGEWPWQVSLHALGHGHTCGASLISPNWLVSAAHCYIDVRGRRWSDPTQWTAFLGLHDQSQRSAPGVQERRLKRIISHPFFNIYNGLDYDIALLELEKPAEYSSMVRPISLPDASHVFPAGKAIWVTGWGHTQYGGTNALILQKGEIRVINQTTCENLLPQLITPRMMCVGFLSGGVDSCDGDSGGPLSSVEADGRIFQAGVVSWGDGCAQRNKPGVYTRLPLFRDWIKENTGV
B20: MTSP-1 Q38H/I41S/D60bT/F60eS/Y60gW/F97D/F99L/C122S/G151H/Q175L/Q192D (enzyme)
chain: VVGGTDADEGEWPWQVSLHALGHGHSCGASLISPNWLVSAAHCYIDTRGSRWSDPTQWTAFLGLHDQSQRSAPGVQERRLKRIISHPFFNDDTLDYDIALLELEKPAEYSSMVRPISLPDASHVFPAGKAIWVTGWGHTQYGGTHALILQKGEIRVINQTTCENLLPQLITPRMMCVGFLSGGVDSCDGDSGGPLSSVEADGRIFQAGVVSWGDGCAQRNKPGVYTRLPLFRDWIKENTGV

The test deals with plasma purified human complement protein C3 (human) (UniProt P01024). As to the kind of experiment: cell-based or functional assay.
plasma purified human complement protein C3 (human), sequence (P01024 23-667, chain 1 of 2): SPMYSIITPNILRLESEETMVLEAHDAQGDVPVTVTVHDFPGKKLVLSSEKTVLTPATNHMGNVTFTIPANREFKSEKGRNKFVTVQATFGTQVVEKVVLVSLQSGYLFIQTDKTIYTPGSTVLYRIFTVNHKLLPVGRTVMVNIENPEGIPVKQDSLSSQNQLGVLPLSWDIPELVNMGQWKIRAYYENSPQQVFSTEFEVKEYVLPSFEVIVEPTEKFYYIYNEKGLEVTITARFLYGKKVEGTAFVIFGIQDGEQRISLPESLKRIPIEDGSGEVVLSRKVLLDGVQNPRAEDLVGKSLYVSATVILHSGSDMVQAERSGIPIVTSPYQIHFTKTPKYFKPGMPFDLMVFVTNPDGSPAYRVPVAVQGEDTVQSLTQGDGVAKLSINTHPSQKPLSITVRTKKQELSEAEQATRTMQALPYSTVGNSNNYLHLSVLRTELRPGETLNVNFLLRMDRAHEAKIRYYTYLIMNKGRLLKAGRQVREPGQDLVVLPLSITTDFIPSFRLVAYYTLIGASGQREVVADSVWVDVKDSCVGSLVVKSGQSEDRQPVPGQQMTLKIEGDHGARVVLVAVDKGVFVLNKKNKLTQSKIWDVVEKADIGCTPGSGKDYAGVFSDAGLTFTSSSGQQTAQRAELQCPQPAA
plasma purified human complement protein C3 (human), sequence (P01024 672-1663, chain 2 of 2): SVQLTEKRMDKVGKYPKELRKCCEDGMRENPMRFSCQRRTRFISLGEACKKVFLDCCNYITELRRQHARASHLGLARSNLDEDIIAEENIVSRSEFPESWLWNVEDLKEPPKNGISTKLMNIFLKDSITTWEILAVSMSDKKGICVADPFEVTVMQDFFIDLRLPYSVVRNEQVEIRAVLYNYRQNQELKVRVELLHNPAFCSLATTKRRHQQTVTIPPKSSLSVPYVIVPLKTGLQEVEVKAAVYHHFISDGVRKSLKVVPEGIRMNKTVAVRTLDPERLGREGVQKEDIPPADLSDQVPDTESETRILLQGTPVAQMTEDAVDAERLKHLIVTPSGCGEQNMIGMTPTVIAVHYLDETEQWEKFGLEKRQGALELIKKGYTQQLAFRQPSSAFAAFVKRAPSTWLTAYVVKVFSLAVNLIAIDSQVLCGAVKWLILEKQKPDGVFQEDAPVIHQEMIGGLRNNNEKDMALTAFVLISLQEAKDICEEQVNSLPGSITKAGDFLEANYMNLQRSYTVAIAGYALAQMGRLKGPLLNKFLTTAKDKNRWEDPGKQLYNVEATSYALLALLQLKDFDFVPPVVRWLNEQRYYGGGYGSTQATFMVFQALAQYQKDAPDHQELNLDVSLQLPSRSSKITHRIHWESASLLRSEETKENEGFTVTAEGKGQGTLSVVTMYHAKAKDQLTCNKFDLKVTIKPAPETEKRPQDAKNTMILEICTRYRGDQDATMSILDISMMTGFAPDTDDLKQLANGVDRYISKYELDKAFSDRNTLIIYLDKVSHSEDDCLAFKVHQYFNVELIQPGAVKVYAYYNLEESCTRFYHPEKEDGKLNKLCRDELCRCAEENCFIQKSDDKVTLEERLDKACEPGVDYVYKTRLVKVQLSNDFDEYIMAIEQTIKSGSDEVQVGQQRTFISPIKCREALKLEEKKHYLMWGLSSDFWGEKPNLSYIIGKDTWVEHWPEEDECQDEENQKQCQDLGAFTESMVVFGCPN
The molecule B1 came in with an EC50 of hC3 cleavage of 10.3 nM.

For B2, the EC50 of hC3 cleavage came out at 16.9 nM.

Molecule B3 had an EC50 of hC3 cleavage of 5.52 nM.

The molecule B4 gave an EC50 of hC3 cleavage of 21.2 nM.

As to B5, the EC50 of hC3 cleavage worked out at 52.4 nM.

Consider B6, for which the EC50 of hC3 cleavage came to 20.6 nM.

B7 gave an EC50 of hC3 cleavage of 1.97 nM.

B8 registered an EC50 of hC3 cleavage of 15.4 nM.

With B9, the EC50 of hC3 cleavage amounted to 11.8 nM.

B10 registered an EC50 of hC3 cleavage of 37 nM.

B11 came in with an EC50 of hC3 cleavage of 50 nM.

Take B12: the EC50 of hC3 cleavage turned out to be 5.93 nM.

In turn, B13 gave an EC50 of hC3 cleavage of 4.36 nM.

In turn, B14 returned an EC50 of hC3 cleavage of 7.09 nM.

Molecule B15 registered an EC50 of hC3 cleavage of 1.51 nM.

In the case of B16, the EC50 of hC3 cleavage came out at 2.07 nM.

Regarding B17, the EC50 of hC3 cleavage came to 2.23 nM.

Turning to B18, the EC50 of hC3 cleavage came to 4.62 nM.

B19 returned an EC50 of hC3 cleavage of 9.75 nM.

With B20, the EC50 of hC3 cleavage stood at 5.53 nM.
